From the DeepSol protein solubility set

Assay: soluble on expression in E. coli; label from the status in PepcDB or PDB records

Sequence	soluble on expression in E. coli
MKEVQETAEKIRTMEIRGAGRIAKAAAEVIRDYAAGLEAASIEEFAAGITEVSNYLISTRPTAVSLPNAVKLSSRYSSDNVENARKEVINNANLFIERADKALGRIGKIGAGRVQDGDVIMTHCNSHAALSIITTAFEDGKNISVIATESRPRRQGLLTVRRLNGFGIPTTLIVDSAVRYYMKDVDKVIVGADAIAANGALVNKIGTSQLALAAHEARKSFMVAAETFKFSPSTILGIPIEIEERSTDEVVDPSVLAELPHVQVKNPAFDFTPSEYIDMIVTDIGIIPPAMAYIVIKEHLGWEFEEIAAALEHHHHHH	not soluble
MKEYRIDDLAREARVSVRNVRVYQDRGLLPPPRKQGRTGWYNESHLARLHLIGRMLDRGYTFATISELLTAAHYGLQVKDVLETDDPGSRWKKRRRAARLTIAELKRMFGAQTTEANIAKGTELGVLVPAGDDYSVNDPRLVEAAQVLVDAGIPLEAVLEQTAAVRRDLSDVAARFVAVVADRYLAAEGEPLELDEAKVSEIARLVDQMRPLAHDAVQSLFEEAMEEQISKALERAARQLGETPGPATSTDTNRAS	not soluble
MKFFSAAAFVAALVASGNACIGGGAGGAGGCCPPAQPGCGNPCQGAGPQYAAAPPPPPQYAAAPQGGAYPTAGK	not soluble
MKFKAVFISDTHLGTKDSKASLLLEFIKEIETKELYLVGDIIDGWSLKRKWIWLQPHSDVIQKILKAARKGVRVTYILGNHDEFIRPFLPLALGDHIRVVDEATYKAKNKKRYKIVHGDLYDSITMTKKWLAILGDNGYQFLLRLNDPINTLRQRLGFRRYWSFSQFIKDHVKQAVAYISDFEKILVAHAREEKFDGIICGHIHKAEIRDIEGITYMNCGDWVESCTALVETLEGEFKIIRWLDER	not soluble
MKFLITGGAGFIGSNLAFALQERYPEAKIYVLDNFSSGHFKNLIGFKGQVITGDISDPSLWDYVRKNFHFDVIFHEAAITDTTVEDQYFMMKTNADSFRYILDLAVEWNAKVIYASSAGVYGNSPPPMREDKGLEPENIYGFSKLMMDHIAMDYMERYPEMNIVGLRYFNVYGPREDYKGKTASMIYQLAVKMIKGERPRLFKWGEQRRDFVYIKDVIKANLLALEKNVSGIFNVGTGRARSFNEIVSILNKELGTNYEIEYFDCPYDFYQKFTEADLTKIREALGYEPEYSLEEGIKDYLPYIIKRVKK	soluble
MKFLLLLFPVLLLAKSPEKRSKVGIDEDNFLQLLEVEIARTLRSELSSDDDLQNLEGSSDSPEDDYLKKYDLILSSSTTSPKPITTTETTTRSTTTTTTTTTTTAAPSTTTSTVKITPKPLRSTPQCVPEKDCYKDSECPSGKCFGSELGLCDCNACITNKKCSSDLDCGGLRNGCDSNGNCDCVNAFHSHGYKLFVKVLLTFCHQTKCTKTSDNCYGLPCRVGKCKCFVGSLSVVTMCSRVLFVLLSTFTVLAGASVTCDLTQKPSTWAQVHAKNIFFNAYEPDNYFSLNGFCVNNDFMSHTLTYSSHVKLADSSVKVKTDVALNTNFDASLSNCGKDVSQVQWCQSHCQDKTLENVIVSSAVINGSLPLALAQQVFSTIGSPNDTSIASMQVDLNSQGVRIDYDYYDDFNFCSVYVKVKRPSMFPYALFITVQKIVGV	not soluble
MKFLTTNFLKCSVKACDTSNDNFPLQYDGSKCQLVQDESIEFNPEFLLNIVDRVDWPAVLTVAAELGNNALPPTKPSFPSSIQELTDDDMAILNDLHTLLLQTSIAEGEMKCRNCGHIYYIKNGIPNLLLPPHLV	not soluble
MKFMQYTEKVMQHFMNPHNVGVIENPDGYGKVGNPSCGDIMEIFIKVDNNIISDVKFRTFGCASAIASSSISTDMIIGKTVEEALKLTNKQVVDELGGLPAVKMHCSVLAEEAIKMAIEDYISKRDGKLEHHHHHH	soluble
MKFRGNFVCQPRAGPAESRPTRPFTPRPSATGSLFMSNQHFVSPDLIRQGFSRAMSDMYREEVPLYGALMELVAEVNAQVLERQPALARHLQSSGELQRLDLERHGAIRVGSAAELATLARLFAVMGMQPVGYYDLTPAGVPVHSTAFRAVHEAALQVSPFRVFTSLLRLELIDNPELRSFAEQVLARRQIFTPQVLELIQQAEAAGGLDAEDAERFIRQALETFRWHHHATVTAAQYASLSAQHRLIADVVAFKGPHINHLTPRTLDIDEVQRLMPARGITPKAVIEGPPRRECPILLRQTSFKALEESVAFTDQAQSQGSHSARFGEIEQRGAALTPKGRELYDRLLNAARDALGDFPNEANAQRYNQLMQEHFREFPDSHPAMREQGLAYFRYFVSETGLAARNQPQRPTTLAALLAAGHLSAEPLVYEDFLPVSAAGIFQSNLGDDSQSHYAGQSNRQAFEAALGRPTLDELQLYAQTQQRSLEHCAATLGLPALLEHHHHHH	not soluble
MKFSIIVPSYNSEKYIAELLNSLQNQSYDKKDFEVILVDDCSSDNTLNVVEAYKNKLNLIIKQLDTNSGGPGKPRNTALQLAQGEYVFFVDSDDYINKDTLKDVSKFVDQNHADVVLVKMEGVNGRGVPKSMFKETSDAVTLANSRIIYTLSPTKFYRTSLLRDHAIEFPEDLRSAEDQLFTMKAYVNAKRIAVLADKPYYYATKREGEHMSSAYVSPEDFYKVMSLITEEILNSPLENKNEVLGYFIDRHFSFSRTNNFSLKIADDKKEAWMDALGDFIQKVPTVVDELVNDSFKPLLHYARLKDMKHYQMVEESYKNGKFHSYSAQEGTLKIQFDEGEPYFVFKKLVKPDIRMSHFEFNDQGFELELEFISSIINPNHVASMIQLKLLSRNKKEFIYIPLTMNDQTRFKFKADLNDLMPYLIKEKVWDAHLEMRVDNMTIEKRIGNKRVKYPYSKETSTITQYNNQYYRFTPYFTKDFDNLSFYITSNKLNEMLAVEIKDKQTIQLRSLEFNYILSEGMTAVILPHMFTYGYLTSVTTKDTLTYHLSVGEKVKDKDLKKNFKIETPHLVLKYLEHHHHHH	soluble
MKGLRLPESMREELAKPHGKLYRGKGEKLLLEVEEISEAKPFCTVGDLVTASAIKVGLTPDLAVADGKTLREENVEFEQEAFDEVIETTNPPAHISCELISALLKALKLCEDGKKVLVFVDGEEDLAVVPLVKLLPLGALILYGQPGEGVVALKVDEEKKVLILNLLNKMEIIGECDELKYLLGGD	not soluble
MKGRTMNKPFITQAQLALYKYQPSSKYFGQSMAVIAQSEFVEFAKINKSENVIDCFSFFWNRRIKHDIWLISFSDNSEMVIKESLKDGHKIYKFEFCEIVDNCNFDDVFV	not soluble
MKGRVRIRGIYATALTSIFSSLSYEIVQQSVEISERFMQEINNLSADITIKDFEDDRGKIIVMGNGIIEDDLRNVFKYSFHWRSPVKLYSVIEIDESCTYANFKVEPCLREGIVIKPPYDGKIILSETKAVSKYAIVWRGKGITTFSEHIVDEEEKMRLLTLSLPLNRKGYNVKWRSNAKYVALNELKEDLERLILRYENREFRDQGEDFYLITLSLPDKLYLDEVRKNVVDTVKYHHMLKLSYNREVDSLEKDKKGSLGKLLEGLISDFLKIEHIKADGKVIYLRGGKVIEKEVNDNGYRIVLRREFEGNGILDGIGKKIEEGDYDIVEYNSDKWYQIHKYYSGIDNSLKGVYINISTPPELLRGKIRYLDLEIDIAIRDSEIALLDEDELNKKSIYMPSSLVNKAKEVVNYLINRIQQNKLS	not soluble
MKGVIMIIDGMADRPLEKLSGRTPLEAASTPNMDRIAESGINGIMDPIKPGVRAGSDTSHLSILGYDPYRVYTGRGPFEAAGVGLDVKPGDIAFRCNFATADEDMIITDRRAGRIRSGTSSIARTINSMTIEGFEDVEIIFRESTGHRAVLVLRGPGLGDKVSDADPKVEGKPPKKIKALDGSPESRKTAEVLNRIVKESYEILRDHPVNTGRIERGEAPANIILPRGAGAVPHVEKFQERYDLKAACIAETGLIKGIGHLTGMDVIDVEGATGGIDTDLESIKNAISSAIAADYDFLLINIDGADEAGHDGDLEGKVRFIERVDSILGDLMGDDIYFILTADHSTPVSVMDHTGDPVPIAITGPEVRVDDVTSFSERAAAAGGLCRIRGSDVMDILLDLMNKKEKFGALEHHHHHH	not soluble
MKHARRLRQLSQENLAHISGLSQSAVASYENGLRQSSRSIRKLAIALQVNLDWLETGAGPMELEAYPSGPAAWRPGLMEPGGERAAAPWPFRAVAHARYQALSARDKLLLEQLVRTFIDTCHADYGRAPPWPRER	not soluble
MKHDHFIVQSPAAPAQQLLLLFHGVGDNPVSMGQIGSWFAPQFPDALIVSIGGVEPCGPNGRQWFSLQGVTEENRQQRIDAIMPTFIEIVRYWQEKSGVSPLATALIGFSQGAIMSLESIKAAPDLASRVIAFNGRYATLPETATTATTIHLIHGGEDRVIDLAWAVSAEEALQQAGGDVTLDIVDDLGHAIDDRSMQLAIERLRYTVPKHY	not soluble
MKHKTKILHLKNGYDLWGASFGDPNSPIKILALHGGPGDDADEFIVWADQLKKFARIDAEVFVYEQLGSFHSESPDFSKKENVDNYLNYNYYINEVEEVRQLFDLDNFYLAGHSWGGILAYEYMLRSEYRQHLKAGIVFSMNDNIDDYVKQINKELLDMFGEQEFKYMKRIETSGDFSQKHYHQNLIELYKEHLNRDPNYNPDDGMKMMAEDVYHHFQGNNEFVVTGEMKNWNVSSRLPEFDIPVLETVGEFDTMSVESAKRSARKLPRGRFALTENGGHSHAQDHPKEFFEHLGSFIKDVKAGNV	not soluble
MKHLKLIVVILATLALGCLIKSPASVKFEIDRTTIPPSGVFHLIVTLNNTGKVGIVDAKLVVEGEEFFIVQSPKLEHPIKVGDSAKLIWTIKGPKIPGNYHFKAYLDIVDELNRVWRGITYETTIKVSSEELKDSVNLNLTVPSKVQGGKIIIVSGEIVNNLTVPVNIVSAEVSAEDLEVIDKEVPNKIDANSKGKVVFKFKVPPRYEKVRMYVIIEYASLQVSGKLIGEKDILIVWKPWELSPEDVKDIYGNLSEWIFYNDIVDGYWEWMYGSKSKIENRTMFRESVEDLLSVANSDVEAAKAVYNHIVTNYVIEKRRIKTLDPQKIMESSSISPTEAEILMVAYLRSLNIPARIVSVYSETDCTYSPFVEAYLSGKWYVIDFNHMFFGTREEFIATRWYPKIYQEITVFGKSLVALKPSPSGHAHEDLTKEYLSITEKALFNHLSKSLDPSTFSQVRIMLNSMNNEDERIFAMFLFTSAKPEEAKQLLEKVHVNELKKTIDAFYKFYRDIPWEEDFRIYWEKLINLYRLEHHHHHH	not soluble
MKHLLPFATVILALGIVGCQKVETTAPEKIKQDTQTKQQVSVTPERPSDAELNAVKVYHHMKYMEATAKLAGGTNKLLHTKKLPTEGSDAVVTPALDHLYSKGVIDLSNGPVTIEYPEVDEGRYYSIHVTDQEHYTIFDKIHPVGKFTFVRKGKNMEVPEGATVIESPGDYPHLFIRVQVKTPEDLVNALSIQEKITLTANSSKTLIVDNPIKHTLATHDVYSQNKELMVSSVNFTHQDYLRVSEYLGVVAPNMGPTGNIGLFGPIDSNEPNSDDYLFRAVGIIGHLGLPLEHAYYGPYFTNCENQLLMGDKTEVFTLPYEPEGVELFWSVTRYSALTRNTLPGKNDLINAYNTKPDANGNISITFSADSPNDGTYWMPVNSGEPYYFVVRYYKPDVNNLPEKPCSLEHHHHHH	not soluble
MKHWRPFRFPPLIDGAPLAPDAAAEVQASAADGFRQGMDAGYREGFDSGEAAGRDAGYQAGLEQGRAEGAAAARAETLAGLETLGAPLAAAIEQLNKLCRDYQAAQRDEVVDLVAKVARQVIRCELALKPVQILDLVEETLAALPQGAHSQGEVEVLLNPEECQRIRELAPERAAQWKLSADPSLAPGECRLRGAEFEADAGCQQRLERCVDSLREQLAAEEG	not soluble
